Measured values: PMC7982615, “Phase 1 study of telisotuzumab vedotin in Japanese patients with advanced solid tumors” (Cancer Medicine, 2021)
Entries after “also recorded” stand apart in the source; their conditions may differ.

Assay: Safety and tolerability (TEAEs, DLTs, AESIs) in phase 1 dose-escalation study of teliso‐v
Format: in vivo, human
Conditions: for Dose‐limiting toxicity (DLT) events: 2.4 and 2.7 mg/kg IV Q3W, dose escalation
Protocol: This phase 1, open‐label, dose‐escalation clinical trial was conducted at two sites in Japan (NCT03311477). Enrollment began on November 6, 2017, and the trial was completed on March 4, 2019.
Escalation into the higher dose level proceeded if the first three evaluable patients in the lower dose level completed the first‐cycle (for at least 21 days) safety assessment without experiencing a dose‐limiting toxicity (DLT). DLT evaluations for dose escalation and determination of RP2D were carried out by investigators, study sponsor, and an independent safety monitor. […] No premedication was required. On the basis of confirmed availability of archival tumor tissue at enrollment, patients were retrospectively analyzed for c‐Met expression and MET amplification. c‐Met expression was determined by immunohistochemistry (IHC), and MET amplification was determined by fluorescence in situ hybridization or sequencing of plasma or tumor DNA.
Safety assessments included treatment‐emergent adverse events (TEAEs) graded according to the National Cancer Institute Common Terminology Criteria for Adverse Events version 4.03. TEAEs, vital signs, physical examinations, electrocardiograms, laboratory tests, and ECOG performance status were monitored during the study. Any grade ≥3 study drug‐related nonhematologic toxicity was documented as a DLT, except as follows: grade 3 nausea or vomiting lasting ≤48 hours that was successfully managed with antiemetics; grade 3 diarrhea successfully managed with antidiarrheal; grade 3 constipation lasting ≤7 days; grade 3 acute infusion reaction that resolved to grade ≤1 within 24 hours after the end of dosing; grade 3 and 4 laboratory tests including but not limited to lactate dehydrogenase, alkaline phosphatase, and gamma‐glutamyl transferase that were considered nonclinically significant by the investigator; liver function test abnormalities; grade 3 and 4 electrolyte imbalance unless associated with clinical symptomatology despite supplementation; and grade 3 hyperglycemia that was manageable without hospitalization. The following hematologic toxicities were documented as a DLT: any grade 4 hematologic toxicity (excluding febrile neutropenia or leukopenia lasting for ≤7 days, or lymphopenia); anemia requiring red blood cell transfusion; thrombocytopenia requiring platelet transfusion; grade 3 thrombocytopenia in the presence of grade ≥2 bleeding; and grade ≥3 febrile neutropenia. Toxicity management criteria are described in the Supplementary appendix.
All data were summarized and tabulated by dose cohort. Categoric data were summarized in terms of frequency counts and percentages. Continuous data were summarized using descriptive statistics, including number of observations, mean, standard deviation, median, minimum, and maximum. No formal statistical analysis was performed for efficacy variables, which were all exploratory in nature. ORR was defined as the proportion of patients with a confirmed partial response (PR) or complete response (CR). Duration of response was defined as time from a patient's initial objective response to the first date of disease progression (PD) or death. The overall disease control rate was defined as the proportion of patients with CR, PR, or stable disease (SD). […] PFS was estimated using the Kaplan–Meier method. Efficacy analyses are presented with two‐sided exact 95% binomial CI.

[1] = total, N = 9, listed as teliso-v
[2] = total, N = 9, listed as telisotuzumab vedotin
[3] = total, N = 9, listed as teliso‐v

## Teliso‐v: antibody‐drug conjugate: anti–c‐Met humanized monoclonal antibody ABT‐700 coupled to monomethyl auristatin E through a valine‐citrulline linker, drug:antibody ratio approximately three
2.4 mg/kg Q3W, n = 3
  Alanine aminotransferase increased, TEAE regardless of relationship: 0 n (%)
  Alanine aminotransferase increased, TEAE related to teliso‐v: 0 n (%)
  Alopecia, TEAE regardless of relationship: 0 n (%)
  Alopecia, TEAE related to teliso‐v: 0 n (%)
  Anemia, TEAE regardless of relationship: 1 (33) n (%)
  Aspartate aminotransferase increased, TEAE regardless of relationship: 0 n (%)
  Aspartate aminotransferase increased, TEAE related to teliso‐v: 0 n (%)
  Back pain, TEAE regardless of relationship: 1 (33) n (%)
  Constipation, TEAE regardless of relationship: 0 n (%)
  Decreased appetite, TEAE regardless of relationship: 2 (67) n (%)
  Decreased appetite, TEAE related to teliso‐v: 2 (67) n (%)
  Diarrhea, TEAE regardless of relationship: 1 (33) n (%)
  Fatigue, TEAE regardless of relationship: 1 (33) n (%)
  Fatigue, TEAE related to teliso‐v: 1 (33) n (%)
  Hypoalbuminemia, TEAE regardless of relationship: 0 n (%)
  Malaise, TEAE regardless of relationship: 2 (67) n (%)
  Malaise, TEAE related to teliso‐v: 2 (67) n (%)
  Nausea, TEAE regardless of relationship: 1 (33) n (%)
  Nausea, TEAE related to teliso‐v: 1 (33) n (%)
  Neutrophil count decreased, TEAE regardless of relationship: 0 n (%)
  Neutrophil count decreased, TEAE related to teliso‐v: 0 n (%)
  Peripheral neuropathy, TEAE regardless of relationship: 2 (67) n (%)
  Peripheral neuropathy, TEAE related to teliso‐v: 2 (67) n (%)
  Peripheral sensory neuropathy, TEAE regardless of relationship: 1 (33) n (%)
  Peripheral sensory neuropathy, TEAE related to teliso‐v: 1 (33) n (%)
  Punctate keratitis, TEAE regardless of relationship: 1 (33) n (%)
  Punctate keratitis, TEAE related to teliso‐v: 1 (33) n (%)
  Weight decreased, TEAE regardless of relationship: 1 (33) n (%)
  Weight decreased, TEAE related to teliso‐v: 1 (33) n (%)
  White blood cell count decreased, TEAE regardless of relationship: 0 n (%)
  White blood cell count decreased, TEAE related to teliso‐v: 0 n (%)
2.7 mg/kg Q3 W, Japanese patients
  Tolerability: well‐tolerated
2.7 mg/kg Q3W, n = 6
  Alanine aminotransferase increased, TEAE regardless of relationship: 2 (33) n (%)
  Alanine aminotransferase increased, TEAE related to teliso‐v: 2 (33) n (%)
  Alopecia, TEAE regardless of relationship: 2 (33) n (%)
  Alopecia, TEAE related to teliso‐v: 2 (33) n (%)
  Anemia, TEAE regardless of relationship: 1 (17) n (%)
  Aspartate aminotransferase increased, TEAE regardless of relationship: 2 (33) n (%)
  Aspartate aminotransferase increased, TEAE related to teliso‐v: 2 (33) n (%)
  Back pain, TEAE regardless of relationship: 1 (17) n (%)
  Constipation, TEAE regardless of relationship: 2 (33) n (%)
  Decreased appetite, TEAE regardless of relationship: 1 (17) n (%)
  Decreased appetite, TEAE related to teliso‐v: 1 (17) n (%)
  Diarrhea, TEAE regardless of relationship: 1 (17) n (%)
  Fatigue, TEAE regardless of relationship: 1 (17) n (%)
  Fatigue, TEAE related to teliso‐v: 1 (17) n (%)
  Hypoalbuminemia, TEAE regardless of relationship: 2 (33) n (%)
  Malaise, TEAE regardless of relationship: 0 n (%)
  Malaise, TEAE related to teliso‐v: 0 n (%)
  Nausea, TEAE regardless of relationship: 2 (33) n (%)
  Nausea, TEAE related to teliso‐v: 2 (33) n (%)
  Neutrophil count decreased, TEAE regardless of relationship: 2 (33) n (%)
  Neutrophil count decreased, TEAE related to teliso‐v: 2 (33) n (%)
  Peripheral neuropathy, TEAE regardless of relationship: 0 n (%)
  Peripheral neuropathy, TEAE related to teliso‐v: 0 n (%)
  Peripheral sensory neuropathy, TEAE regardless of relationship: 3 (50) n (%)
  Peripheral sensory neuropathy, TEAE related to teliso‐v: 3 (50) n (%)
  Punctate keratitis, TEAE regardless of relationship: 1 (17) n (%)
  Punctate keratitis, TEAE related to teliso‐v: 1 (17) n (%)
  Weight decreased, TEAE regardless of relationship: 2 (33) n (%)
  Weight decreased, TEAE related to teliso‐v: 1 (17) n (%)
  White blood cell count decreased, TEAE regardless of relationship: 3 (50) n (%)
  White blood cell count decreased, TEAE related to teliso‐v: 3 (50) n (%)
  Dose‐limiting toxicity (DLT) events: no DLTs were reported; also recorded: no DLTs observed
Listed as telisotuzumab vedotin
  Dose‐limiting toxicity (DLT) events: no dose‐limiting toxicity events were observed
2.4‐mg/kg dose level
  Hematologic AEs (AESI): 33%
  Peripheral neuropathy events (AESI): three
2.7‐mg/kg dose level
  Hematologic AEs (AESI): 67%
  Ocular AESIs: three
  Peripheral neuropathy events (AESI): three
Japanese patients, four of nine
  Frequency of corneal epithelium disorder: 44.4%
N = 9
  AEs leading to withdrawal of consent: three
  Dry eye (ocular AESI): one
  Keratitis (ocular AESI): one
  Patients with at least one TEAE: nine
  Patients with at least one TEAE related to teliso‐v: nine
  Patients with serious AEs: two
  Punctate keratitis (ocular AESI): two
  Serious AEs, number of events: Three
  Visual impairment (ocular AESI): one
Doses up to 2.7 mg/kg Q3W, 3 + 3 design
  Maximum tolerated dose: not reached
Either dose level
  Deaths: No deaths were reported
Every 3 weeks, Japanese patients
  Recommended phase 2 dose (RP2D): 2.7 mg/kg
Grade 1 or 2, total, N = 9
  Ocular AESIs: 44%
Grade 2, teliso‐v related serious AE, 2.7‐mg/kg dose level
  TEAE leading to treatment discontinuation: gait disturbance
Grades 1 and 2, total, N = 9
  Peripheral neuropathy events (AESI): 67%
total, N = 9
  Alanine aminotransferase increased, TEAE regardless of relationship: 2 (22) n (%)
  Alanine aminotransferase increased, TEAE related to teliso‐v: 2 (22) n (%)
  Alopecia, TEAE regardless of relationship: 2 (22) n (%)
  Alopecia, TEAE related to teliso‐v: 2 (22) n (%)
  Anemia, TEAE regardless of relationship: 2 (22) n (%)
  Aspartate aminotransferase increased, TEAE regardless of relationship: 2 (22) n (%)
  Aspartate aminotransferase increased, TEAE related to teliso‐v: 2 (22) n (%)
  Back pain, TEAE regardless of relationship: 2 (22) n (%)
  Constipation, TEAE regardless of relationship: 2 (22) n (%)
  Decreased weight, TEAE regardless of relationship: 33%
  Decreased white blood cell count, TEAE regardless of relationship: 33%
  Decreased white blood cell count, TEAE related to teliso‐v: 33%
  Diarrhea, TEAE regardless of relationship: 2 (22) n (%)
  Fatigue, TEAE regardless of relationship: 2 (22) n (%)
  Fatigue, TEAE related to teliso‐v: 2 (22) n (%)
  Hypoalbuminemia, TEAE regardless of relationship: 2 (22) n (%)
  Malaise, TEAE regardless of relationship: 2 (22) n (%)
  Malaise, TEAE related to teliso‐v: 2 (22) n (%)
  Neutrophil count decreased, TEAE regardless of relationship: 2 (22) n (%)
  Neutrophil count decreased, TEAE related to teliso‐v: 2 (22) n (%)
  Peripheral neuropathy, TEAE regardless of relationship: 2 (22) n (%)
  Peripheral neuropathy, TEAE related to teliso‐v: 2 (22) n (%)
  Punctate keratitis, TEAE regardless of relationship: 2 (22) n (%)
  Punctate keratitis, TEAE related to teliso‐v: 2 (22) n (%)
  Weight decreased, TEAE regardless of relationship: 3 (33) n (%)
  Weight decreased, TEAE related to teliso‐v: 2 (22) n (%)
  White blood cell count decreased, TEAE regardless of relationship: 3 (33) n (%)
  White blood cell count decreased, TEAE related to teliso‐v: 3 (33) n (%)
[1]
  Decreased appetite, TEAE regardless of relationship: 3 (33) n (%)
  Nausea, TEAE regardless of relationship: 3 (33) n (%)
  Peripheral sensory neuropathy, TEAE regardless of relationship: 4 (44) n (%)
[2]
  Decreased appetite, TEAE related to teliso‐v: 33%
  Nausea, TEAE related to teliso‐v: 33%
  Peripheral sensory neuropathy, TEAE related to teliso‐v: 44%
[3]
  Decreased appetite, TEAE regardless of relationship: 33%
  Decreased appetite, TEAE related to teliso‐v: 3 (33) n (%)
  Nausea, TEAE regardless of relationship: 33%
  Nausea, TEAE related to teliso‐v: 3 (33) n (%)
  Peripheral sensory neuropathy, TEAE regardless of relationship: 44%
  Peripheral sensory neuropathy, TEAE related to teliso‐v: 4 (44) n (%)
